This assay addresses HRgpA-6H (Porphyromonas gingivalis) (UniProt P28784). The assay can be described thus: ELISA, coated HRgpA-6H. Background: ELISA stands for enzyme-linked immunosorbent assay.

Values joined by “and” are separate entries in the source; they are usually repeats but may differ in a detail not shown here. Equal values may be shown once.

Chain of UniProt P28784 (P28784 228-860 limits assumed): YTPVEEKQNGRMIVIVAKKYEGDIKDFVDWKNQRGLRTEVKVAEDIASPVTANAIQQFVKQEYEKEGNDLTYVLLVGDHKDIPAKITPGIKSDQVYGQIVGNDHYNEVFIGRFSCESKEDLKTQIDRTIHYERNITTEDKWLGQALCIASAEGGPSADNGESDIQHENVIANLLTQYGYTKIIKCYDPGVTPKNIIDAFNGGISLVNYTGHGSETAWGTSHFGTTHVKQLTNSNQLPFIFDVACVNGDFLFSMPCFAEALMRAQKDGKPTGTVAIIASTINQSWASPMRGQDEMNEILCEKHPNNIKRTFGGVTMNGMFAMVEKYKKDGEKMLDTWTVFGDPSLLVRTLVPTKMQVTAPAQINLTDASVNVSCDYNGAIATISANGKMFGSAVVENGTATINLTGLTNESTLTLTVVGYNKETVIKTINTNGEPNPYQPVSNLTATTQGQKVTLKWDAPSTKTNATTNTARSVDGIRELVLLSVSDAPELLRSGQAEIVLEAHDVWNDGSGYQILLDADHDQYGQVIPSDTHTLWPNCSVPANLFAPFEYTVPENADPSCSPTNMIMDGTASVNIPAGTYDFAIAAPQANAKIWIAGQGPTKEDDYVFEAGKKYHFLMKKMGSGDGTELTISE

B1: KB001 mouse Fab VH I51V (Fab, V domains shown)
VH: EVQLKQSGPGLVAPSQSLSITCTVSGFSLSIYSVHWVRQPPGKGLEWLGMVWGGGSSDYNSALKSRLSISKDNSKSQVFLKMNSLQTDDTAMYYCARNGNFYAMDYWGQGTSVTVSS
VL: QIVLTQSPAIMSASLGERVTMTCTASSSVSSSFLHWYQQKPGSSPQLWIYSTSNLASGVPARFSGSGSGTSYSLTISSMEAEDAATYYCHQYHHSPYIYTFGGGTKLEIK
For the molecule B1, the OD450 nm amounted to 0.798 and the Ratio OD(Variant)/OD(WT) came to 0.903.

B2: KB001 mouse Fab VH S57M (Fab, V domains shown)
VH: EVQLKQSGPGLVAPSQSLSITCTVSGFSLSIYSVHWVRQPPGKGLEWLGMIWGGGSMDYNSALKSRLSISKDNSKSQVFLKMNSLQTDDTAMYYCARNGNFYAMDYWGQGTSVTVSS
VL: QIVLTQSPAIMSASLGERVTMTCTASSSVSSSFLHWYQQKPGSSPQLWIYSTSNLASGVPARFSGSGSGTSYSLTISSMEAEDAATYYCHQYHHSPYIYTFGGGTKLEIK
Regarding B2, the OD450 nm worked out at 0.748 and the Ratio OD(Variant)/OD(WT) was found to be 0.85.

B3: KB001 mouse Fab VH Y59T (Fab, V domains shown)
VH: EVQLKQSGPGLVAPSQSLSITCTVSGFSLSIYSVHWVRQPPGKGLEWLGMIWGGGSSDTNSALKSRLSISKDNSKSQVFLKMNSLQTDDTAMYYCARNGNFYAMDYWGQGTSVTVSS
VL: QIVLTQSPAIMSASLGERVTMTCTASSSVSSSFLHWYQQKPGSSPQLWIYSTSNLASGVPARFSGSGSGTSYSLTISSMEAEDAATYYCHQYHHSPYIYTFGGGTKLEIK
B3: the OD450 nm came to 0.744 and the Ratio OD(Variant)/OD(WT) amounted to 0.941.

B4: KB001 mouse Fab VH S56E (Fab, V domains shown)
VH: EVQLKQSGPGLVAPSQSLSITCTVSGFSLSIYSVHWVRQPPGKGLEWLGMIWGGGESDYNSALKSRLSISKDNSKSQVFLKMNSLQTDDTAMYYCARNGNFYAMDYWGQGTSVTVSS
VL: QIVLTQSPAIMSASLGERVTMTCTASSSVSSSFLHWYQQKPGSSPQLWIYSTSNLASGVPARFSGSGSGTSYSLTISSMEAEDAATYYCHQYHHSPYIYTFGGGTKLEIK
With B4, the OD450 nm is 0.772 and 0.713; the Ratio OD(Variant)/OD(WT) is 0.878 and 0.811.

B5: KB001 mouse Fab VH S57R (Fab, V domains shown)
VH: EVQLKQSGPGLVAPSQSLSITCTVSGFSLSIYSVHWVRQPPGKGLEWLGMIWGGGSRDYNSALKSRLSISKDNSKSQVFLKMNSLQTDDTAMYYCARNGNFYAMDYWGQGTSVTVSS
VL: QIVLTQSPAIMSASLGERVTMTCTASSSVSSSFLHWYQQKPGSSPQLWIYSTSNLASGVPARFSGSGSGTSYSLTISSMEAEDAATYYCHQYHHSPYIYTFGGGTKLEIK
Consider B5, for which the OD450 nm is 0.796 and the Ratio OD(Variant)/OD(WT) turned out to be 0.905.

B6: KB001 mouse Fab VH G53S (Fab, V domains shown)
VH: EVQLKQSGPGLVAPSQSLSITCTVSGFSLSIYSVHWVRQPPGKGLEWLGMIWSGGSSDYNSALKSRLSISKDNSKSQVFLKMNSLQTDDTAMYYCARNGNFYAMDYWGQGTSVTVSS
VL: QIVLTQSPAIMSASLGERVTMTCTASSSVSSSFLHWYQQKPGSSPQLWIYSTSNLASGVPARFSGSGSGTSYSLTISSMEAEDAATYYCHQYHHSPYIYTFGGGTKLEIK
On to B6, for which the OD450 nm amounted to 0.686 and the Ratio OD(Variant)/OD(WT) was 0.861.

B7: KB001 mouse Fab VH Y59K (Fab, V domains shown)
VH: EVQLKQSGPGLVAPSQSLSITCTVSGFSLSIYSVHWVRQPPGKGLEWLGMIWGGGSSDKNSALKSRLSISKDNSKSQVFLKMNSLQTDDTAMYYCARNGNFYAMDYWGQGTSVTVSS
VL: QIVLTQSPAIMSASLGERVTMTCTASSSVSSSFLHWYQQKPGSSPQLWIYSTSNLASGVPARFSGSGSGTSYSLTISSMEAEDAATYYCHQYHHSPYIYTFGGGTKLEIK
Consider B7, for which the OD450 nm amounted to 0.648 and the Ratio OD(Variant)/OD(WT) is 0.819.

B8: KB001 mouse Fab VH G55N (Fab, V domains shown)
VH: EVQLKQSGPGLVAPSQSLSITCTVSGFSLSIYSVHWVRQPPGKGLEWLGMIWGGNSSDYNSALKSRLSISKDNSKSQVFLKMNSLQTDDTAMYYCARNGNFYAMDYWGQGTSVTVSS
VL: QIVLTQSPAIMSASLGERVTMTCTASSSVSSSFLHWYQQKPGSSPQLWIYSTSNLASGVPARFSGSGSGTSYSLTISSMEAEDAATYYCHQYHHSPYIYTFGGGTKLEIK
As to B8, the OD450 nm came out at 0.652 and the Ratio OD(Variant)/OD(WT) amounted to 0.81.

B9: KB001 mouse Fab VH D58S (Fab, V domains shown)
VH: EVQLKQSGPGLVAPSQSLSITCTVSGFSLSIYSVHWVRQPPGKGLEWLGMIWGGGSSSYNSALKSRLSISKDNSKSQVFLKMNSLQTDDTAMYYCARNGNFYAMDYWGQGTSVTVSS
VL: QIVLTQSPAIMSASLGERVTMTCTASSSVSSSFLHWYQQKPGSSPQLWIYSTSNLASGVPARFSGSGSGTSYSLTISSMEAEDAATYYCHQYHHSPYIYTFGGGTKLEIK
On to B9, for which the OD450 nm amounted to 0.646 and the Ratio OD(Variant)/OD(WT) turned out to be 0.817.

B10: KB001 mouse Fab VH S57T (Fab, V domains shown)
VH: EVQLKQSGPGLVAPSQSLSITCTVSGFSLSIYSVHWVRQPPGKGLEWLGMIWGGGSTDYNSALKSRLSISKDNSKSQVFLKMNSLQTDDTAMYYCARNGNFYAMDYWGQGTSVTVSS
VL: QIVLTQSPAIMSASLGERVTMTCTASSSVSSSFLHWYQQKPGSSPQLWIYSTSNLASGVPARFSGSGSGTSYSLTISSMEAEDAATYYCHQYHHSPYIYTFGGGTKLEIK
As to B10, the OD450 nm is 0.843 and 0.849; the Ratio OD(Variant)/OD(WT) was 0.958 and 0.965.

B11: KB001 mouse Fab VH D58G (Fab, V domains shown)
VH: EVQLKQSGPGLVAPSQSLSITCTVSGFSLSIYSVHWVRQPPGKGLEWLGMIWGGGSSGYNSALKSRLSISKDNSKSQVFLKMNSLQTDDTAMYYCARNGNFYAMDYWGQGTSVTVSS
VL: QIVLTQSPAIMSASLGERVTMTCTASSSVSSSFLHWYQQKPGSSPQLWIYSTSNLASGVPARFSGSGSGTSYSLTISSMEAEDAATYYCHQYHHSPYIYTFGGGTKLEIK
For B11, the OD450 nm is 0.778 and the Ratio OD(Variant)/OD(WT) was determined as 0.984.

B12: KB001 mouse Fab VH S56M (Fab, V domains shown)
VH: EVQLKQSGPGLVAPSQSLSITCTVSGFSLSIYSVHWVRQPPGKGLEWLGMIWGGGMSDYNSALKSRLSISKDNSKSQVFLKMNSLQTDDTAMYYCARNGNFYAMDYWGQGTSVTVSS
VL: QIVLTQSPAIMSASLGERVTMTCTASSSVSSSFLHWYQQKPGSSPQLWIYSTSNLASGVPARFSGSGSGTSYSLTISSMEAEDAATYYCHQYHHSPYIYTFGGGTKLEIK
As to B12, the OD450 nm was 0.809 and the Ratio OD(Variant)/OD(WT) came to 0.92.

B13: KB001 mouse Fab VH S56P (Fab, V domains shown)
VH: EVQLKQSGPGLVAPSQSLSITCTVSGFSLSIYSVHWVRQPPGKGLEWLGMIWGGGPSDYNSALKSRLSISKDNSKSQVFLKMNSLQTDDTAMYYCARNGNFYAMDYWGQGTSVTVSS
VL: QIVLTQSPAIMSASLGERVTMTCTASSSVSSSFLHWYQQKPGSSPQLWIYSTSNLASGVPARFSGSGSGTSYSLTISSMEAEDAATYYCHQYHHSPYIYTFGGGTKLEIK
For B13, the OD450 nm is 0.855 and 0.788 and 0.824; the Ratio OD(Variant)/OD(WT) is 0.972 and 0.896 and 0.937.

B14: KB001 mouse Fab VH S56N (Fab, V domains shown)
VH: EVQLKQSGPGLVAPSQSLSITCTVSGFSLSIYSVHWVRQPPGKGLEWLGMIWGGGNSDYNSALKSRLSISKDNSKSQVFLKMNSLQTDDTAMYYCARNGNFYAMDYWGQGTSVTVSS
VL: QIVLTQSPAIMSASLGERVTMTCTASSSVSSSFLHWYQQKPGSSPQLWIYSTSNLASGVPARFSGSGSGTSYSLTISSMEAEDAATYYCHQYHHSPYIYTFGGGTKLEIK
Take B14: the OD450 nm was 0.759 and 0.743; the Ratio OD(Variant)/OD(WT) was 0.863 and 0.845.

B15: KB001 mouse Fab VH G53P (Fab, V domains shown)
VH: EVQLKQSGPGLVAPSQSLSITCTVSGFSLSIYSVHWVRQPPGKGLEWLGMIWPGGSSDYNSALKSRLSISKDNSKSQVFLKMNSLQTDDTAMYYCARNGNFYAMDYWGQGTSVTVSS
VL: QIVLTQSPAIMSASLGERVTMTCTASSSVSSSFLHWYQQKPGSSPQLWIYSTSNLASGVPARFSGSGSGTSYSLTISSMEAEDAATYYCHQYHHSPYIYTFGGGTKLEIK
On to B15, for which the OD450 nm is 0.754 and 0.716; the Ratio OD(Variant)/OD(WT) is 0.947 and 0.899.

B16: KB001 mouse Fab VH S56L (Fab, V domains shown)
VH: EVQLKQSGPGLVAPSQSLSITCTVSGFSLSIYSVHWVRQPPGKGLEWLGMIWGGGLSDYNSALKSRLSISKDNSKSQVFLKMNSLQTDDTAMYYCARNGNFYAMDYWGQGTSVTVSS
VL: QIVLTQSPAIMSASLGERVTMTCTASSSVSSSFLHWYQQKPGSSPQLWIYSTSNLASGVPARFSGSGSGTSYSLTISSMEAEDAATYYCHQYHHSPYIYTFGGGTKLEIK
Consider B16, for which the OD450 nm came to 0.71 and the Ratio OD(Variant)/OD(WT) is 0.807.

B17: KB001 mouse Fab VH S56T (Fab, V domains shown)
VH: EVQLKQSGPGLVAPSQSLSITCTVSGFSLSIYSVHWVRQPPGKGLEWLGMIWGGGTSDYNSALKSRLSISKDNSKSQVFLKMNSLQTDDTAMYYCARNGNFYAMDYWGQGTSVTVSS
VL: QIVLTQSPAIMSASLGERVTMTCTASSSVSSSFLHWYQQKPGSSPQLWIYSTSNLASGVPARFSGSGSGTSYSLTISSMEAEDAATYYCHQYHHSPYIYTFGGGTKLEIK
In the case of B17, the OD450 nm is 0.838 and 0.844 and 0.853; the Ratio OD(Variant)/OD(WT) is 0.953 and 0.96 and 0.97.

B18: KB001 mouse Fab VH G55D (Fab, V domains shown)
VH: EVQLKQSGPGLVAPSQSLSITCTVSGFSLSIYSVHWVRQPPGKGLEWLGMIWGGDSSDYNSALKSRLSISKDNSKSQVFLKMNSLQTDDTAMYYCARNGNFYAMDYWGQGTSVTVSS
VL: QIVLTQSPAIMSASLGERVTMTCTASSSVSSSFLHWYQQKPGSSPQLWIYSTSNLASGVPARFSGSGSGTSYSLTISSMEAEDAATYYCHQYHHSPYIYTFGGGTKLEIK
For B18, the OD450 nm was found to be 0.697 and the Ratio OD(Variant)/OD(WT) amounted to 0.866.

B19: KB001 mouse Fab VH S57H (Fab, V domains shown)
VH: EVQLKQSGPGLVAPSQSLSITCTVSGFSLSIYSVHWVRQPPGKGLEWLGMIWGGGSHDYNSALKSRLSISKDNSKSQVFLKMNSLQTDDTAMYYCARNGNFYAMDYWGQGTSVTVSS
VL: QIVLTQSPAIMSASLGERVTMTCTASSSVSSSFLHWYQQKPGSSPQLWIYSTSNLASGVPARFSGSGSGTSYSLTISSMEAEDAATYYCHQYHHSPYIYTFGGGTKLEIK
In the case of B19, the OD450 nm was 0.8 and the Ratio OD(Variant)/OD(WT) was determined as 0.91.
